Laboratory results as given in patent US20240299561A1, “HISTIDINE-SELECTIVE POLYMER REAGENTS” (Nektar Therapeutics, priority 2021, published 2024).
“And” between values parts separate entries of the source, which are not always exact repeats. Equal entries are not always repeated.

Columns and labels:
[1] = Hydrolytic stability of PEG conjugates with α-CBZ-histidine in PBS buffer, pH 7.4, 37° C. (HPLC)
Description: The reaction mixture was incubated at 37° C. and periodically analyzed by HPLC.

[2] = Reaction of histidine-linked conjugates with hydroxylamine (release of α-CBZ-His); conditions: pH 7.3, 25° C., at approximately 42 hours
Description: FIGS. 14A and 14B provide further evidence of the histidine-selectivity of exemplary polymer reagents provided herein, as illustrated by reaction of their corresponding histidine-linked conjugates with hydroxylamine. The data described below is representative of an indirect method for evaluating covalent attachment of a polymer reagent as provided herein with a histidine residue of an amino acid, peptide, polypeptide or other active histidine containing molecule, by displacement of the histidine-attached molecule resulting from reaction of the histidine-linked polymer conjugate with hydroxylamine.
More particularly, FIG. 14A is a plot illustrating reaction of a histidine conjugate prepared by reaction of Reagent 1 with model compound, α-CBZ-His, with hydroxylamine at pH 7.4, 25° C. […] Histidine conjugates such as the illustrative conjugates tested, when treated with hydroxylamine, undergo a reverse reaction such that the unconjugated histidine compound is released. […] By approximately 22 hours, 100% of the conjugate has disappeared with release of α-CBZ-His.

Molecule	degree of hydrolytic stability relative to the other conjugates tested [1]	% Hydrolysis at day 10 [1]	percent of intact conjugate remaining [2]
COCCOCCOCCOCCOCCOCCOCCOCCOCCOCCOCCOCCOCCOCCOCCOCCOCCOCCOCCOCCOCCOCCOCCOCCOCCOCCOCCOCCOCCOCCOCCOCCOCCOCCOCCOCCOCCOCCOCCOCCOCCOCCOCCOCCOCCOCCOCCOCCOCCOCCOCCOCCOCCOCCOCCOCCOCCOCCOCCOCCOCCOCCOCCOCCOCCOCCOCCOCCOCCOCCOCCOCCOCCOCCOCCOCCOCCOCCOCCOCCOCCOCCOCCOCCOCCOCCOCCOCCOCCOCCOCCOCCOCCOCCOCCOCCOCCOCCOCCOCCOCCOCCOCCOCCOCCOCCOCCOCCOCCOCCOCCOCCOCCOCCN(C)C(=O)n1cnc(C[C@@H](NC(=O)OCc2ccccc2)C(=O)O)c1 [Conjugate 10, mPEG-N(CH3)—CO-α-CBZ-Histidine, 5 kDa]	highest degree of hydrolytic stability	1.8% and 1.9%	–
mPEG-N(CH2CF3)—CO-α-CBZ-Histidine, 5 kDa [Conjugate 14]	moderate degree of hydrolytic stability	–	–
mPEG-Piperazine-CO— α-CBZ-Histidine, 5 kDa [Conjugate 11]	moderate degree of hydrolytic stability	15.6%	4%
